Data on 1 molecule can be found in US11161912B2, “Heparanase-neutralizing monoclonal antibodies” (Technion Research & Development Foundation Limited, priority 2015, dated 2021).

Test [1] deals with ESb mouse T-lymphoma cells. Put plainly: ESb T-lymphoma spontaneous liver metastasis and survival. Format: in vivo. The note with it: ESb, mAb 500 μg/mouse every other day, 3 weeks. As to the method: Lymphoma cells were also inoculated subcutaneously at the right flank of 6-weeks-old NOD/SCID mice (human cell lines) or C57BL/6 mice (E1-4 mouse lymphoma cells) (n=7). Mice were treated with heparanase inhibitors (PG545; SST0001) or neutralizing antibodies and xenografts size was determined by externally measuring the tumors in 2 dimensions using a caliper. At the end of the experiment, mice were sacrificed; tumor xenografts were removed, weighed and fixed for histological and immunohistochemical analyses (Weissmann et al, 2016, Proc Natl Acad Sci USA 113:704-709). ESb mouse T-lymphoma cells (5×10^5) were similarly inoculated subcutaneously into SCID mice and spontaneous metastasis to the liver (Vlodaysky et al., 1983, Cancer Res 43:2704-2711) was examined after 3 weeks of treatment with PG545 or the neutralizing mAb, as described above. All animal experiments were approved by the Animal Care Committee of the Technion, Haifa, Israel.
FIG. 3A. HEK 293 cells were incubated with latent 65 kDa (upper panel) or GS3 constitutively active heparanase (1 μg/ml; third panel) and the indicated mAbs (10 μg/ml). The cell medium was aspirated at the time designated and cell lysates were subjected to immunoblotting applying anti-heparanase antibody (upper and third panels). […] Heparanase-transfected 293 cells were grown with control mouse IgM or mAb 9E8 for two days. Cells were then fixed with methanol and subjected to immunofluorescent staining applying anti heparanase antibody (second panel) or lysed and subjected to immunoblotting applying anti-heparanase antibody (fourth panel). Purified recombinant active heparanase (200 ng) was pre-incubated with control mouse IgM ( ? ), mAb 8A5 ( ? ), mAb 9E8 ( ? ), all at 2 μg/ml, for 2 h in serum-free RPMI medium on ice. The mixture was then applied onto ^35S-labeled ECM-coated dishes and heparanase activity was determined as described above (lower panel). FIG. 3B, C. […] Quantification of the extent of CD45 staining is shown graphically in the lower panel. […]

The subject of test [2] is LM2-4 human breast carcinoma cells. The experiment in a line: LM2-4 breast carcinoma experimental lung metastasis. The note with it: mAb 500 μg/mouse with the cells, lungs after 18 days. Format: in vivo. As to the method:
Experimental metastasis. B16 BL6 mouse melanoma (2×10^5) or LM2-4 human breast cancer cells (2×10^6) were injected into the tail vein of C57/BL mice or SCID/Beige mice (respectively) together with the indicated compound, essentially as described (Hostettler N, et al. 2007, FASEB J 21(13):3562-3572). Lungs were harvested 18 days thereafter and metastases occurrence was determined following fixation by gross inspection and histology (Weissmann et al, 2016, Proc Natl Acad Sci USA 113:704-709).
FIG. 5A. Cell invasion. Cal-27 tongue carcinoma (left panels) and U87 glioma cells (right panels) (2×10^5) were plated onto Matrigel-coated filters in the presence of mouse IgM/IgG (upper panels), mAb 9E8 (2 μg; second left and middle panels). Invading cells adhering to the lower side of the membrane were visualized after 6 h. The number of invading cells per high power field is shown graphically at the lower panels. FIG. 5B, FIG. 5C. Tumor metastasis. FIG. 5B Mouse B16 melanoma cells (2×10^5) were inoculated into the tail vein of C57Bl/6 mice (n=7) together with rabbit IgG (300 μg; Con), Ab #1453 (250 μg), mAb 9E8 (500 μg) or SST0001 (400 μg). Lungs were harvested after 18 days, photographed (lower panel) and the number of metastatic lesions was counted (upper panel; p=0.001, 0.0006, 0.0001 for Con vs. Ab 1453, Con vs. mAb 9E8 and Con vs. SST0001, respectively). […]

B1: mAb 9E8: monoclonal IgM raised against KKDC peptide (Lys158-Asn171) of heparanase; VH SEQ ID NO: 7, VL SEQ ID NO: 8 (antibody)
VH: EVKLLESGGGLVQPGGSLKLSCAASGFDFSRYWMSWVRQAPGKGLEWIGEINPDSSTINYTPSLKDKFIISRDNAKNTLYLQMSKVRSEDTALYYCARRGYEGNYAMDYWGQGTSVTVSSESQSFPNVFPLVSCESPLSDKNLVAMGCLAR
VL: DIVMTQAAPSVPVTPGESVSISCRSSKSLLHSNGNTYLYWFLQRPGQSPQLLIYRMSNLASGVPDRFSGSGSGTAFTLRISRVEAEDVGVYYCMQHLEYPFTFGSGTKLEIKRADAAPTVSIFPPSSEQLTSGGASVVCFL
modifications: IgM constant regions
With B1, the “inhibition of liver metastasis (CD45 staining)” value in test [1] is reported as 4-5 fold. Further, the experimental lung metastasis result in test [2] is “inhibitory effect”.
